In patent US20240117047A1 (University of California, published 2024):
Changes are numbered by the printed parent chain.

B1: UC-101 (antibody, V domains shown)
VH: EVQLLETGGGLVQPGGSRKLSCVASGFSFSSYGMHWVRQAPEKGLEWVAYIGGTSNTIYFADTVKGRFTISRDNAKNTLFLQMASLRSEDTAMYYCARTNLLGMDYWGQGTSVTVSS
VL: QIVLTQSPTIMSASPGEKVTMTCSASSSVSDMYWYQQKPGSSPRLLIYDTSNLASGVPVRFSGSGSGTSYSLTISRMEAEDAATYYCQQWISYTFGGGTKLEIKR
notes: Mouse-derived anti-hROR1 mAb, detected with anti-mouse IgG; also called UC-101 mAb
B2: UC-102 (antibody, V domains shown)
VH: DVHLQESGPGLVKPSQSLSVTCTVTGYSITGSYSWNWIRQFPGNKLEWMGYIHSSGTTNYNPSLKSRISFTRDTSKNQLFLQLNSVTTEDTATYYCTRGFAYWGQGTLVTVSA
VL: NIVMTQSPSSMSASLGDRITITCQATQDIVKNLNWYQQKPGKPPSFLIYYTTELAEGVPSRFSGSGSGSDYSLTISNLESEDFADYYCLQFYEFPPTFGAGTKLELKR
notes: Mouse-derived anti-hROR1 mAb, detected with anti-mouse IgG; also called UC-102 mAb
B3: UC-107 (antibody, V domains shown)
VH: QIQLVQSGPELKKPGETVKISCKASGYTFTNYPIHWVKQAPGKGLKWMGWINTYSGVPTYADDFKGRFAFSLETSANTAYLQLNNLRNEDMATYFCARGDSSLFDYWGQGTTLTVSS
VL: DVQMIQSPSSLSASLGERVSLTCRASQEISGYLIWLQQKPDGTITRLIYAASTLDSGVPKRFSGSRSGSDYSLTISSLESEDFADYYCLQYTSYPLTFGAGTKLELKR
notes: Mouse-derived anti-hROR1 mAb, detected with anti-mouse IgG; also called UC-107 mAb
B4: UC-103 (antibody, V domains shown)
VH: EIQLQQSGPVLVKPGASVKVSCKASGYAFTAYNIHWVRQSHGKRLEWIGSFDPYDGGSSYNQKFKDKATLTVDKSSTTAYMHLNSLTSEDSAVYYCARGWYYFDYWGHGTTLTVSS
VL: DVQITQSPSYLAASPGETITINCRASKSISKYLAWYQEKPGKTNKLLIYSGSTLQSGIPSRFRGSGSGTDFTLTISSLEPEDFAMYYCQQHDESPYTFGEGTKLEIKR
notes: Mouse-derived anti-hROR1 mAb, detected with anti-mouse IgG; also called UC-103 mAb
B5: UC-104 (antibody, V domains shown)
VH: EVQLLETGGGLVQPGGSRKLSCAASGFTFSNYGMHWVRQAPGKGLEWVAHISRYSDTIYYADAVKGRFTISRDNAKNTLFLQMTTLRSEDTAIYYCTSAMDYWGQGTSVTVSS
VL: DIQMTQTTSSLSASLGDRVTISCRASQDISNYLNWFQQKPDGTIKLLIYYTSRLHSGVPSRFSGSGSGTDYSLTISNLEQEDIATYFCQQGNTLPFTFGSGTKLEIKR
notes: Mouse-derived anti-hROR1 mAb, detected with anti-mouse IgG; also called UC-104 mAb
B6: UC-105 (antibody, V domains shown)
VH: EVKLVESGGGLVQPGGSRKLSCAASGFTFSSYGMHWIRQTPDKGLEWVAYISSNSDHIFYTDTVKGRFTISRDNAKNTLFLQMTSLRSEDTAMYYCASRMDYWGQGTSVTVSS
VL: B5 VL with Y32H, F36Y, I44V, E81G, N92S, F96Y, S100G
notes: Mouse-derived anti-hROR1 mAb, detected with anti-mouse IgG
B7: UC-106 (antibody, V domains shown)
VH: B3 VH with N31Y, L83I
VL: B3 VL with D1G, V2H, I5T, T45K, D55N
notes: as for B6

target: T1, extracellular domain of human ROR1 (human, UniProt Q01973 30-406); assay: ELISA screening
T1 construct: also called hROR1; hROR1 extracellular recombinant protein
T1 sequence (Q01973 30-406 limits assumed): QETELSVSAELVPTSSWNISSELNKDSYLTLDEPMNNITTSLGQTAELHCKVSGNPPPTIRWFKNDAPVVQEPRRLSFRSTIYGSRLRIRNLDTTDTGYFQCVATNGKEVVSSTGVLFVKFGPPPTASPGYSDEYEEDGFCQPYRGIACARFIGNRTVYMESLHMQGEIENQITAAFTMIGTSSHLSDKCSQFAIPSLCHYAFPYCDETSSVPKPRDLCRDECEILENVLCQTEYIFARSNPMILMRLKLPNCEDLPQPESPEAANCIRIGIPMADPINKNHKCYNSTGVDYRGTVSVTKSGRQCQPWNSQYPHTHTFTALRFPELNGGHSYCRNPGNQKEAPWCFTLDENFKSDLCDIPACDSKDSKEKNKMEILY

Row | Binder | binding result
1 | B1 | binds
2 | B2 | binds
3 | B3 | binds
4 | B4 | binds
5 | B5 | binds
6 | B6 | binds

target: T2, hROR1 with a single amino acid substitution at position 346 (threonine to serine) (human, UniProt Q01973 30-406); assay: binding to point-mutated hROR1; blot in FIG. 6
T2 construct: Recombinant mutant of the hROR1 extracellular domain; also called hROR1 T346S
T2 sequence (Q01973 30-406 T346S limits assumed): as the sequence (Q01973 30-406 limits assumed) above, with T317S counted along it
Text: Neither of the antibody reacts with mROR1 protein. […] We generated recombinant hROR1 proteins having either the mouse or human amino acid residue at this position only.

Row | Binder | binding result
7 | B7 | no binding

target: T2, hROR1 with a single amino acid …; assay: binding to point-mutated hROR1

Row | Binder | binding result
8 | B3 | no binding

target: T3, hROR1 with a single amino acid substitution at position 138 (glutamic acid to lysine) (human, UniProt Q01973 30-406); assay: binding to point-mutated hROR1
T3 construct: Recombinant mutant of the hROR1 extracellular domain; also called hROR1 E138K
T3 sequence (Q01973 30-406 E138K limits assumed): as the sequence (Q01973 30-406 limits assumed) above, with E109K counted along it

Row | Binder | binding result
9 | B1 | no binding
10 | B2 | no binding
11 | B4 | no binding
12 | B5 | no binding
13 | B6 | no binding

target: T4, extracellular domain of mouse ROR1 (mouse, UniProt Q9Z139 30-406); assay: blot of recombinant protein, non-denaturing gel
T4 construct: also called mROR1; mROR1 protein
T4 sequence (Q9Z139 30-406 limits assumed): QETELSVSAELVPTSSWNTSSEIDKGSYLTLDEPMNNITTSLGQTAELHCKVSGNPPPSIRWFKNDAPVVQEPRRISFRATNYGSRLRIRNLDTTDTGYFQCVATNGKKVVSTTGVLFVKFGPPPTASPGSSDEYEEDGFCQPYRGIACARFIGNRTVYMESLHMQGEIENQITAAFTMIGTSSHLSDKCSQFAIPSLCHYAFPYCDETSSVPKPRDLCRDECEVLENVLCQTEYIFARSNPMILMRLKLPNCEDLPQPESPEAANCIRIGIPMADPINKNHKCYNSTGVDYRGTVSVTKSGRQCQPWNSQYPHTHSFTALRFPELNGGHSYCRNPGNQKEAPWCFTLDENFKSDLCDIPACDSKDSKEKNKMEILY
Text: (§1) Schematics of the chimeric constructs of the extracellular portion of ROR1 used to map the domain of hROR1 bound by each of the mAb in this disclosure. The dark regions of each construct indicate hROR1, light portions denote regions of mROR1, and hatched portions indicate deleted regions. Arrows mark the boundaries between the mouse and hROR1 regions for constructs #5, #6, #13 and #14, which depict the first 160 amino acids of the extracellular region that includes the Ig-like domain. The amino acids that differ between human and mROR1 are indicated by the single letter abbreviation at that position. (B) Each of these recombinant proteins were separated in non-denaturing polyacrylamide gel, transferred onto nylon, probed with the anti-hROR1 mAb indicated on the left, and detected with an anti-mouse IgG antibody conjugated with horse radish peroxidase. […] None of the antibody bind to mROR1.

Row | Binder | binding result
14 | B1 | no binding
15 | B2 | no binding
16 | B7 | no binding
17 | B3 | no binding
18 | B4 | no binding
19 | B5 | no binding
20 | B6 | no binding

target: T1, extracellular domain of human ROR1; assay: blot, non-denaturing gel
Text: as §1

Row | Binder | binding result
21 | B7 | binds
